Measurements as given in US20130143802A1.
Each block holds one substance with its values, some of them ahead of it.

Tests used:
[1] = biological target: interleukin 1 receptor (on human peripheral blood leukocytes RPMI 1788) (human (cells are stated to be human)) (UniProt P14778); assay: cell-based or functional assay
[2] = biological target: alpha-amylase; assay: cell-based or functional assay

Chain of UniProt P14778 (P14778 18-569): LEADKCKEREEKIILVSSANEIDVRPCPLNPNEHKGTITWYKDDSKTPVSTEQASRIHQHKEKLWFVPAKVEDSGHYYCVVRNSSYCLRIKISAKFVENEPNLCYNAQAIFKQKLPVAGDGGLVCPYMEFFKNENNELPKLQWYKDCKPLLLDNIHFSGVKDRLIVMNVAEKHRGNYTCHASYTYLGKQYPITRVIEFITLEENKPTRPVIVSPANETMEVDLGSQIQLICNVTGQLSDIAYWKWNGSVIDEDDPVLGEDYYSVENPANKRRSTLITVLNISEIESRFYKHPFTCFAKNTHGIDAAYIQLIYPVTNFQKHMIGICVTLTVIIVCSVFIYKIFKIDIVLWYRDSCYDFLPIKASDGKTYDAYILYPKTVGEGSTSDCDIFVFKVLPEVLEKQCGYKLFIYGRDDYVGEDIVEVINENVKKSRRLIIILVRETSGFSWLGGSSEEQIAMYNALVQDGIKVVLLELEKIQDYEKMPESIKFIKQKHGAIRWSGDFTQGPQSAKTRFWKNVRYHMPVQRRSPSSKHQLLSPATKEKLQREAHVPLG

specific activity: EC50 value in µg/mL, inhibition of proliferation of RPMI 1788 cells (CellTiter Glo assay) [1]: 0.5 µg/mL
Substance: ELP/IL-1Ra fusion protein (ELP1 [V5A2G3-90] - … - interleukin 1 receptor antagonist) (from UniProt P18510 26-177)

potency relative to ELP/IL-1Ra in the cell proliferation assay [1]: 4 fold | specific activity: EC50 value in µg/mL, inhibition of proliferation of RPMI 1788 cells (CellTiter Glo assay) [1]: 2 µg/mL
Substance: IL-1Ra/ELP fusion protein (interleukin 1 receptor antagonist - … - ELP1 [V5A2G3-90]) (from UniProt P18510 26-177)

α-amylase inhibition activity (colorimetric α-amylase inhibition assay) [2]: 2 fold
Substance: ternary thioredoxin-ELP-tendamistat fusion (thioredoxin/90-mer ELP/tendamistat) (from UniProt P01092 31-104)

EC50, inhibition of proliferation of RPMI 1788 cells (CellTiter Glo assay) [1]: 0.0016 µg/mL | activity relative to IL-1Ra/ELP in the cell proliferation assay [1]: 300 fold
Substance: un-fused, commercially available interleukin 1 receptor antagonist (from UniProt P18510 26-177) (ligand)
